{"source": "paper PMC11217292", "molecular_target": "OSM-3 H207Q mutant, EGFP tagged (C. elegans) (UniProt P46873)", "sequence (P46873 whole entry H207Q)": "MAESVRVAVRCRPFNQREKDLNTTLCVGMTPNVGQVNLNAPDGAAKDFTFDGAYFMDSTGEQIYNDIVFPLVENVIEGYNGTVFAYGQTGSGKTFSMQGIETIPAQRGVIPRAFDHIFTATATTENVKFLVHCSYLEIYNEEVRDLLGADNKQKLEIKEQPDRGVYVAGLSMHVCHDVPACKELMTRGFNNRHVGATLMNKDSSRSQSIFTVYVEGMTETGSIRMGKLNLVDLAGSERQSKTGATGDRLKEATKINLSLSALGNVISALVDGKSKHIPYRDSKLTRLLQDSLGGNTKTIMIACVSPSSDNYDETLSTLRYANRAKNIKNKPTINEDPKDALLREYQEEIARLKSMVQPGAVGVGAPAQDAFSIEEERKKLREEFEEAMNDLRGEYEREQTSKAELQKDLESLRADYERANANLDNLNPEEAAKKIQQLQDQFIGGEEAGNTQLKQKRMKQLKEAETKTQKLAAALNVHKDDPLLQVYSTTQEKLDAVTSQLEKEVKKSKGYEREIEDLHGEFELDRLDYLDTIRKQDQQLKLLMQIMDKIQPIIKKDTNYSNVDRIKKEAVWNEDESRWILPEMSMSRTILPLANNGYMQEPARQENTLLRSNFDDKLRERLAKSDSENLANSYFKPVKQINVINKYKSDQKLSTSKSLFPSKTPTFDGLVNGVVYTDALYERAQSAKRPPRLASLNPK", "data": [{"substance": "microtubules (complex)", "values": [{"measurement": "microtubule-stimulated ATPase activity relative to wild-type OSM-3 (set to 100%)", "result": 18, "unit": "%"}]}]}
